Columns and labels:
[1] = biological target: human insulin receptor (hIR) (human) (UniProt P06213); assay: cell-based or functional assay
[2] = biological target: human insulin receptor (hIR) (human) (UniProt P06213); assay: binding to hIR, assay not described at this place; reference human insulin
[3] = biological target: human IR-B overexpressed on NIH 3T3 mouse fibroblast cells (human) (UniProt P06213); assay: cell-based or functional assay
[4] = biological target: solubilised immuno-captured human IR (isoform B) (human) (UniProt P06213); assay: competition binding on human IR-B (FIG. 2); reference PTM-free sCon-Ins G1
[5] = biological target: solubilised immuno-captured human IR (isoform B) (human) (UniProt P06213)

B10E, B20 biphenyl DOI analogue (ligand)
fold higher potency than N10E, B20Y DOI [1]: 3 fold | fold increase of the potency of DOI [1]: 100 fold | percent of the potency of human insulin [1]: 10%

B20 Tyr DOI analogue (ligand)
fold increased potency in hIR activation (against DOI) [1]: 5 fold

Con-Ins G1 (ligand)
fold less affinity than human insulin [2]: 30 fold

DOI analogue with B10 Glu and B20 Tyr (ligand)
fold increase in potency compared to B20 Tyr alone [1]: 5 fold

hIns[TyrB15, TyrB20, DOI] (ligand)
fold increased potency in hIR activation (against DOI) [1]: 5 fold | fold more active than hIns[DOI], Akt phosphorylation assay [3]: 5 fold

sCon-Ins G1 (ligand)
fold more active than the PTM-free analogue [4]: 4 fold | fold less active than hIns [5]: 30 fold | log [IC50 (nM)] [5]: 1.24 log nM

— patent US20220340636A1
